# Source: the DeepSol protein solubility set
# Assay: soluble on expression in E. coli; label from the status in PepcDB or PDB records
row,Sequence,soluble on expression in E. coli
1,MGSDKIHHHHHHGEGVVVATGKAQAAASTVAGNAYGRLQFSPCTLSSGSAAGNIEAQCAQLQVPENPAAPNGRKLALKIAWLESDAGASHAPDPVFFIAGGPGQSATQVAAIVDMGLREVRKHRDIFLVDQRGTGGSHPLECRDAGGTPLVLENDSAATAEQLSAYAARCAAGLRNDADPRYFTTSEAIGDLDAVREALGAQQINLIGGSYGTRVAQQYAARYPQHTRTVVLDGVAPNDLVIGGEFARTFEDAIALQTTQCKAQPACAKRFPVDTRTQLRQVVERLRQAPAPVDYRDPRTGELHHQEVNADTVAGLAFGFSYAPETASLLPLVLDEAAAGRYASLMALAQMSGSDMADQMNRPMQWSVLCSEDAGRYRAPAAQDDTLLGAQVAEMFFAACKTWPSKPTPAAAFAPFRSTLPVLLLSGQLDPVTPPRYAARVLQGLPNGRHLIAPGQSHGVFRLGCMPKVLGQFLQTADAKGLDARCVDSLTDVPAFTSFNGWEP,not soluble
2,MGSDKIHHHHHHMKTRIVQKQFKRKETKYIVDKKTFELLEKELRQYMMADEFATSTITNIYFDNEDFDMIQDSLAKKNGREKIRMRVYDAIPSESSQAFLEIKKKENKIGYKYRLTSNPVSVANYIENGVIDSTIKDDKVNSELEMLRERYGTIKPKMYIYYDRVSYKGIEDKKVRLTIDKNLLYRDYDVDAMEGKFGKNLLDPTKVIMEVKVPEERPDWLVALLEKYQIEKQSFSKYGNAYKLAHNITGEEVSQHAVV,not soluble
3,SGLIGEGLKDVKSAAGDTRVDNFADRLAALSQAAQPARAVAAPASAPLMNQPLAMHQSGWTEGIVDRVMYLSSQNLKTADIKLEPAELGRLDIRINMAPEQQTQVTFMSAHMGVRDALESQMSKLRESFVQQGLGNVDVNVSDQS,not soluble
4,MSLGLKIEEARVIVCCPGRNFVTLKIITNEGIYGLGDATLNGRELSVVSYLEDHVIPCLIGRDPHQIEDIWQFLYRGAYWRRGPITMSAIAAVDTALWDIKAKAAGLPLYQMLGGKSRTGVMVYGHANGRDIEETVEEVGRYIEIGYQAVRAQCGIPGLPSTYGVSNDKMFYEPADADLPSENIWSTSRYLDHVPKLFEKLRQVHGWDVHLLHDVHHRLTPIEAARLGQSLEPMRLFWLEDIVPAENQEGFRIIRNHTTTPLAVGEVFNTIWDCKNLIEEQLFDYIRSTVVHAGGITHLRRIADLAGLYHVKTGCHGATDLSPVCMGAALNFDLWVPNFGIQEYMRHAEITNEVFPHHYNFSNGFLHPGESPGHGVDLDEKLAAKYPYQRAYLPVNRLEDGTMWNWEGHHHHHH,not soluble
5,MHFGKHNVDFMLPSLRKEWEDPEKIVSQIPIQPNFDIVDLGCGPGFFTLPLSETTDGKVYAIDASQEMIDALKQRIDGRSNIVTIKAPAEKIPLPDLSADLVFIANAYHDFDDRDEVLSEIYRILRAGRFLVDIDWKKEETTRGPPIDIRIDKKEAMLEIASHNFDIESEIEAGPHHYGLIFKKILEHHHHHH,soluble
6,MSLKLSAREWKDFSLEELFTVRGTKTTPLIILRKNNKKREKQLPYVTTKSTYNGIDDFFSGFTEEGNVITIDSATDGYVFYQLNNFSASDHVEKLIPKFKLNKYIALFLVNCIKKATKCKYGYGYKFSQTRIKRQKIMLPASNNQPDFQFMERYIKEKHFNLKSRIKEKQNHEINDWRELDDVEWTPFSTSEVFNNIQRGKRLTKSNQIKGLTPYISSSGINNGLDNFISNNEKIREFDNCLTIANSGSVGSAFYHTYRFIASDHVTHLKNNNLNKFSYLFIANMLRRLEGKYSFNRGINDFRIKRERILLPTKNNRPEYEFMEQYMKRKENEILDRLEGHHHHHH,not soluble
7,MLAQRGTFAECGAEVLAVAMSPGRRHITKPVCEITFGLRESNVLTSTMVLNAGAGVPHDAPASGGTLFGLTDKEVEQMSNFKLLVIHLGGVKNHLIYKARLILRNVNKPCIIICESPVDCEDFAKIGVKTSKVMPSEEDVKTEGHIVDIVSGVIRGETISQEKLDEIIRKVKLALGDALEHHHHHH,soluble
8,MGSDKIHHHHHHMKILIDATAALMGGGQTYLINLLNYTEILEHDIIILSPKKLTLPSIQNIHRIDVDKSLENPFIRAVWMRRYLPDLIKERKVDILFCPGGLITKGIPSNCVKVTMFRNMIPFDLKQRVKYPLGYMRFRNWLLERLLLDSMIEADLVIFISEYASKVIKKRAKKKLRNTVIIPHGLSAEFRIFDKKAIPRPQWLPAEDYLLYVSILDVYKAQIELIQGFALLKKWRQTSEKLLLVGPDEERSYYTKMIKKEIVKHGLQNDVIITGPVPYNELPALYYHAKVNIFASECENCPNILLEALGAGRPTLVSDCEPMPEFGGDSVEYFDPTSPEDFANSIIRFIDDENKMKELAKKAGERSLLFDWEKVGRLTWQSIENIYNSKTINM,not soluble
9,MGHHHHHHSHCPQESVYCENKCGARMMRRLLAQHATSECPKRTQPCTYCTKEFVFDTIQSHQYQCPRLPVACPNQCGVGTVAREDLPGHLKDSCNTALVLCPFKDSGCKHRCPKLAMARHVEESVKP,not soluble
10,MNMIDKIGVHDVPPGESLQPPRIPYTPIFSNKRLSKHMSRFLIYFLPFFIYSGNVLSKTSCLMATGVLKCPTDPEAVKKVHIDLWDEDSLPLESDDLMGRTWSDRNGNFQVTGCASDFGPINTPDPYLYIQHNCPHRDSNATNPIQVYLKVLENASF,not soluble
11,MGSDKIHHHHHHMELVQFGCEDWLNVWEKSATIDIAQSTIDSLSLEEVLAFEEDNGEAFMSQMMKEKFSYGWIEGSPAFKSEVAKLYKRVPEDNILSTNGATGANFLTILGLIGQGDHVIAQYPSYQQLYDWPKTLGAQVDYWHIKEENNWLPQIEELRRLVKSNTKLICLNNAAQPTGAIMSPKFLSEVVEIARSVDAYILCDEVYLPLDEETPYSPIADLYEKGISTNSISKTYSVPGIRVGWVATQDRDLCNEFRKIRDYTLICTGVFDDAVAALVLKHKDKVLERARKIVKGNLSILKEWVENEPLVSMVYPNAVSVSFVKFEELDPTKTEDFAIQLLREKGVLIIPGNRFDLSGYARIGYCTDETTLRQGLKLLSEFLREYQV,not soluble
12,MKYQKLENQEANWKWIYLIRKHREGENITRYEERSLQEAKAQELLESQNYPEKIEEWIKNHLSPALPIKLDQAIRARRKRFFNGEKQHTKKKSIDLEYAVWLRLSKYSRKMKMTLSETITYMIDERESKAQFENQMAAMKTSLKNLLK,not soluble
13,MSLTSYHSHPPKAYRRFESVCTQAPNAIAVVDEGKLVTYQQLQTQVLERSEALIRQGLADHPYMPLMANRCLEYLITMLACCKLGITYVSIEPGTPSKRLIAVLEQLGCNHLLLLGQPTDLRPDPTLTCFRLDDCGTLCYDGPALRPPIRRRLDDASVITVMFTSGTTGLPKGVRISHDGLLNLVDNVQQQVQGKPRSYVHHSSIGFDAALFEVWVPLLTGACVTLQPGAFNIDALDHCVRAASCDVLLLTTSLFHLVAQHRLSMLDAVRVLYVGGEVLKPVHARALLLANPRITLVNGYGPTENTVFSTWYSLNKPEDAERDVMPIGQFLHQVYGKIVDAKLQEVEVGTPGELLLTGANLALGYLDDALTQTRFLQLPEGTYYRTGDYVIEDEHGMLFYQGRIDEQVKIKGFRVEIAEVEHALTQLPGVAQAVVQAHVMNDLEKSLHAFIVLRHGSPTIEESKLMSLLGDRLPHYMVPRRIHYLAELPLTANGKVDKRSLQPPEKAAAAPPQAGSAVLDIWSGILGTRNLQLEHSIYGYGASSLSVVMAHSRINEILGRTTPFDEVARLSTFQEWVQYYATHEDPVTSLRSQHGNEGHHHHHH,not soluble
14,MSFLVLPPEVNSALMFAGAGSGPTLAAAAAWDGLAAELGQAANSFSSATAALADTAWQGPAATAMAAAAAPYASWLSTAATRALSAAAQAKAAAAVYEAARAATVDPLLVAANRHQLVSLVLSNLFGQNAPAIAATEAAYEQLWAADVAAMVSYHSGASAVAAQLAPWAQAVRALPNPTAPALASGPAALAIPALGIGNTGIGNIFSIGNIGDYNLGNGNTGNANLGSGNTGQANLGSGNTGFFNFGSGNTANTNFGSGNLGNLNLGSGNDGNGNFGLGNIGDGNRGSGNVGSFNFGTANAGSFNVGSANHGSPNVGFANLGNNNLGIANLGNNNLGIANLGNNNIGIGLTGDNMIGIGALNSGIGNLGFGNSGNNNIGLFNSGNNNIGFFNSGDSNFGFFNSGDTNTGFGNAGFTNTGFGNAGSGNFGFGNAGNNNFGFGNSGFENMGVGNSGAYNTGSFNSGTLNTGDLNSGDFNTGWANSGDINTGGFHSGDLNTGFGSPVDQPVMNSGFGNIGTGNSGFNNSGDANSGFQNTNTGAFFIGHSGLLNSGGGQHVGISNSGTGFNTGLFNTGFNNTGIGNSATNAAFTTTSGVANSGDNSSGGFNAGNDQSGFFDG,not soluble
15,MPDRTTDDFGPFTEQIRGTIDGMGTAEFDALPVGAIQVDGSGVIHRYNRTESRLSGRIPERVIGRNFFTEVAPCTNIPAFSGRFMDGVTSGTLDARFDFVFDFQMAPVRVQIRMQNAGVPDRYWIFVRK,soluble
16,MVSLDKAVIARLRKGGEEFEVLVDPYLARDLKEGKEVNFEDLLAAEEVFKDAKKGERASVDELRKIFGTDDVFEIARKIILEGEVQITAEQRREMLEAKRKQIINFISRNTIDPRTNAPHPPSRIERALEEAKVHIDIFKSVEAQVKDIVKALKPILPLKFEEMEIAIKIPPEHTGRAISALYNFGGVTREEWQRDGSWICVMRIPSGMYGDLMDLLGKVAKGEALTKVLRRIG,not soluble
17,MANRKYFGTDGVRGKVGAYPITPDFALKLGWAAGKVLASQGSKMVLIGKDTRISGYMLESALEAGLAAAGLSAAFTGPMPTPAIAYLTRTFRAEAGIVISASHNPYYDNGIKFFSAKGTKLPDEIEEAIEAMLEQPMDCVESAELGKASRINDAAGRYIEFCKGTFPAHLGLEGYKIVVDCANGATYHIAPNVLRELGAEVIEIGTDPNGLNINEKCGATDVTALQAKVVETKADVGLAYDGDGDRIMMVDHLGNKVDGDQILFIIAREALRSGQLKGGVVGTLMSNMSLEIALKMLGVPFLRANVGDRYVLEKMVENDWTLGGENSGHIIIADKNTTGDGIVASLAVLAAMAQHKLSLNELASAVKLFPQVLINVRFAGGENPLESDAVKSVAAEVEKRLEGKGRILLRKSGTEPLIRVMVECQDAELAQQCAEEIAEAVKKIN,not soluble
18,MSLNPSGKYQVKILGIEDYQALTACQSACPLGTDTKRYVRAITEGDYEKAFLIARQTNPLVSVCSRVCTAPCEKSCRKGEQGHPVDIRALKRFACDKHGVTSPRAVAGRLEEISRQNGGVGDRTGNHILTMAAVQKAGAAATSRKPAPRVAIIGSGPTGLSAAHDLALLGYGVTIFEAAPYAGGMLRTGIPAFRLPKDVLQQEIDAILNLGVELKLNSPIGEDLTLADLKAQGYESVFITIGLQDPLRILNIEGTDLAGIYSGVEYVRDHEKIRLGKRCLVIGGGGVAIDCAQHAVRQGAEQVMIACLESWETMPASLTEREDAQEEGIVFHPALGPRRFMGHNGHVARAEFLQVSSVFDSEGRFAPTFVPDSTTTLEVDSVILAVGQASTAPSLAGLAGLDLTPNGLIKAAEDMSTNLPGVFAGGDVRWRFTRNATDAIADGQKAARAIHGYLSGHTPQVIRKGFMRPVSPDFENTRCDTIAPVPIPKRDAGERVRTKEEITIGFGEAEAREQAARCRRCNIQTVFERSRCLRCGTCVDTCVNGALRIVRLADIQGDEDVAKLTDALKKSAQTRSKAMTAIIKDESRCASCGMCARRCPGGAITMAEFYCQEEWEEGHHHHHH,soluble
19,MAVIYKTTAHASAGREGVVQTVDGFTVSLAFPKPGATHQDKNNPEQLFASAYAGCFSQAVRVVLQQHQLQLATQPIVGVSVELHDQDGLFHIKAGVELAITGVDQTTAQTVITAAHAMCPFSRLIKPENFLGLTLNGAKL,soluble
